Read-outs that look alike come from different tables or passages of the source.

The values that follow come from paper PMC4658703 (Science (New York, N.Y.), 2012).

Test [1] deals with T1, Human IGF2R domain 11 (wild type) (human, UniProt P11717 1508-1650). Put plainly: SPR.
Test [2] has as its target T1, Human IGF2R domain 11 (wild type). Put plainly: SPR. The source holds these as a separate data set. (In general: Surface plasmon resonance follows binding to a sensor surface in real time, without labels.)

T1 sequence (P11717 1508-1650): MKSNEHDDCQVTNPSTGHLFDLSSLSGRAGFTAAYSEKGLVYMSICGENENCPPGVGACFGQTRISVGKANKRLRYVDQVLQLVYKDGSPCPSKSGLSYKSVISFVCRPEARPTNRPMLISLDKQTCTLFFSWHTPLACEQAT

B1: Chicken IGF2 (ligand, UniProt P33717 24-91, looked up)
chain: AYGTAETLCGGELVDTLQFVCGDRGFYFSRPVGRNNRRINRGIVEECCFRSCDLALLETYCAKSVKSE
modifications: ends and bridges not checked; also: biotin, site not given here
In the case of B1, the Kd was found to be 63 nM in test [1] and 46 nM in test [2].

Broadly, the Kd is the constant that tells how readily two partners part at equilibrium.
